# Measurements: patent publication US20240084031A1 (Seagen, published 2024)
# Where a chain is given by its changes, count along the chain named. Names and notes keep the numbering of the source.
# B1: h1F6 HMLA-F8 (humanized 1F6 derivative HMLA, hVHM and hVLA, conjugated to vcMMAF, eight drug units per antibody) (antibody, human IgG1, kappa, V domains shown)
# VH: QVQLVQSGAEVKKPGASVKVSCKASGYTFTNYGMNWVRQAPGQGLKWMGWINTYTGEPTYADAFKGRFAFSLDTSTSTAYMELRSLRSDDTAVYYCARDYGDYGMDYWGQGTTVTVSS
# VL: DIVMTQSPDSLAVSLGERATINCRASKSVSTSGYSFMHWYQQKPGQPPKLLIYLASNLESGVPDRFSGSGSGTDFTLTISSLQAEDVAVYYCQHSREVPWTFGQGTKVEIKR
# modifications: vcMMAF conjugated, loading level of eight drug units per antibody; attachment residues not stated
# B2: h1F6 HELA-F8 (humanized 1F6 derivative HELA, hVHE and hVLA, conjugated to vcMMAF, eight drug units per antibody) (antibody, human IgG1, kappa, V domains shown)
# VH: B1 VH with K46E, F68V, A69T, F70M, S71T, L72R, T76I, R84S, S85R
# VL: B1 VL
# modifications: vcMMAF conjugated, loading level of eight drug units per antibody; attachment residues not stated
# B3: h1F6 HHLA-F8 (HHLA conjugated to vcMMAF, eight drug units per antibody) (antibody, human IgG1, kappa, V domains shown)
# VH: B1 VH with K46E, M81L, E82Q, L83I, R84N
# VL: B1 VL
# modifications: vcMMAF conjugated, loading level of eight drug units per antibody; attachment residues not stated
# B4: humanized 1F6 antibody derivative HDLA (hVHD and hVLA) (antibody, human IgG1, kappa, V domains shown)
# VH: B1 VH with K46E, F68V, A69T, F70M, S71T, L72T
# VL: B1 VL
# notes: Heavy chain is hVH-D + hIgG1 constant domain; also called h1F6 HDLA
# B5: humanized 1F6 antibody derivative HHLA (hVHH and hVLA) (antibody, V domains shown)
# VH: B1 VH with K46E, M81L, E82Q, L83I, R84N
# VL: B1 VL
# notes: Heavy chain is hVH-H + hIgG1 constant domain; also called h1F6 HHLA
# B6: h1F6 HJLA-F8 (HJLA conjugated to vcMMAF, eight drug units per antibody) (antibody, human IgG1, kappa)
# heavy: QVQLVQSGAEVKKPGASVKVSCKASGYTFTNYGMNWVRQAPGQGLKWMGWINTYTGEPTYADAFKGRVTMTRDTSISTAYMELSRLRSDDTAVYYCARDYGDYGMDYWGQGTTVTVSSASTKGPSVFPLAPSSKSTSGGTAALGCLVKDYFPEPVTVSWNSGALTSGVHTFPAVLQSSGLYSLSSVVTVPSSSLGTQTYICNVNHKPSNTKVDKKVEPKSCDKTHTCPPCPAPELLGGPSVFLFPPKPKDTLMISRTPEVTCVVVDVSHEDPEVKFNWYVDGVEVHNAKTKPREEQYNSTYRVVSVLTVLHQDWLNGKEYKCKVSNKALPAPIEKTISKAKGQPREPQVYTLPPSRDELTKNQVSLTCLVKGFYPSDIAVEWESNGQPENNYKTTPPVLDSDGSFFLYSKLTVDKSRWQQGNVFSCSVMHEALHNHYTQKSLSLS
# light: DIVMTQSPDSLAVSLGERATINCRASKSVSTSGYSFMHWYQQKPGQPPKLLIYLASNLESGVPDRFSGSGSGTDFTLTISSLQAEDVAVYYCQHSREVPWTFGQGTKVEIKRTVAAPSVFIFPPSDEQLKSGTASVVCLLNNFYPREAKVQWKVDNALQSGNSQESVTEQDSKDSTYSLSSTLTLSKADYEKHKVYACEVTHQGLSSPVTKSFNRGEC
# modifications: vcMMAF conjugated, loading level of eight drug units per antibody; attachment residues not stated
# B7: h1F6 IgG4 (IgG4 isotype variant of h1F6 HJLA) (antibody)
# heavy: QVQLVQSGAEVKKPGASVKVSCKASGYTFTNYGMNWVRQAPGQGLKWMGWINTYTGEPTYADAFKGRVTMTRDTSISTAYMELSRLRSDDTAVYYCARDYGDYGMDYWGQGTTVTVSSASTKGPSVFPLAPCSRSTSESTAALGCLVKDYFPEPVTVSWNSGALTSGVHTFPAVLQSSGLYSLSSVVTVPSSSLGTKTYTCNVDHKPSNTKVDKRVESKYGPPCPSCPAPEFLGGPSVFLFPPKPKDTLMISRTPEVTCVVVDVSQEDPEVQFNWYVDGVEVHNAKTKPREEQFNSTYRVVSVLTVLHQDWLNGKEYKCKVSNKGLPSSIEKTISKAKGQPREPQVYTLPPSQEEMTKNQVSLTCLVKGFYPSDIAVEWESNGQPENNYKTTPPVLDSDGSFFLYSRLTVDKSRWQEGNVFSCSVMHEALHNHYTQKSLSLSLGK
# light: B6 light
# notes: also called h1F6 G4
# B8: h1F6 IgG1-vcF2 (conjugate of h1F6 IgG1 in Table 8) (antibody)
# heavy: not shown
# light: B6 light
# modifications: vcF2 as printed (taken as vcMMAF, 2 drugs/antibody); attachment residues not stated
# notes: Its preparation is not described; also called IgG1 IgG-vcF2
# B9: h1F6 IgG4 vcMMAF(4) antibody drug conjugate (antibody)
# heavy: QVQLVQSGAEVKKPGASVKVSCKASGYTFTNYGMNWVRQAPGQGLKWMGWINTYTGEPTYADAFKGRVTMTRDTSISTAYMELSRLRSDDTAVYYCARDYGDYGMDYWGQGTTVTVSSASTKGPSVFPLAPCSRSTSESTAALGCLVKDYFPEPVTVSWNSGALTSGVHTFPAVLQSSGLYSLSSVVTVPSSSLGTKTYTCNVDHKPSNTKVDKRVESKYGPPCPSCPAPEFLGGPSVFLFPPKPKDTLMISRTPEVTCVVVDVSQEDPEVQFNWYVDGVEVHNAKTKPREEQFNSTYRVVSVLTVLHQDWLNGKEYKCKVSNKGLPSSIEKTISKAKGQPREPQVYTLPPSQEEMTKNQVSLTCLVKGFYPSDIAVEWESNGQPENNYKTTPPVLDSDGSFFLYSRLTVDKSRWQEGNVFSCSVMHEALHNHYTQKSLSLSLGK
# light: B6 light
# modifications: vcMMAF conjugated, mean loading of 4 drugs/antibody; attachment residues not stated
# notes: also called h1F6 G4-vcMMAF(4); IgG4-F4
# B10: h1F6 IgG1 S239C conjugated to vcMMAF (average of 2 drugs/antibody) (antibody)
# heavy: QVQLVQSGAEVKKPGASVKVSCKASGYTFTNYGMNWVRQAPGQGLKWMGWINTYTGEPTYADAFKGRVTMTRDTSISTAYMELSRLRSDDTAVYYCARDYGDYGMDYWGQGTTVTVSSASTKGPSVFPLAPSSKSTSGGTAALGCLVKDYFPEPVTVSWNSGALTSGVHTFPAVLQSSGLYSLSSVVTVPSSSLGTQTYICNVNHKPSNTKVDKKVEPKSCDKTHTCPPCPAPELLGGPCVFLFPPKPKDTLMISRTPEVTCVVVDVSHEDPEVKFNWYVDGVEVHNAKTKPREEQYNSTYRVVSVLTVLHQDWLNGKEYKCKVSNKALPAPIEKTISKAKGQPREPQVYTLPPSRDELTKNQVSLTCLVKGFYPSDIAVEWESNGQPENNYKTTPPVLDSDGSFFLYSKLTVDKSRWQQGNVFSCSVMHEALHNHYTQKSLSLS
# light: B6 light
# modifications: vcMMAF conjugated, average of 2 drugs/antibody; attachment residues not stated for the material tested
# notes: also called IgG1 S239C vcMMAF; IgG1 S239C IgG-vcF2
# B11: h1F6 IgG1 S239C (antibody)
# heavy: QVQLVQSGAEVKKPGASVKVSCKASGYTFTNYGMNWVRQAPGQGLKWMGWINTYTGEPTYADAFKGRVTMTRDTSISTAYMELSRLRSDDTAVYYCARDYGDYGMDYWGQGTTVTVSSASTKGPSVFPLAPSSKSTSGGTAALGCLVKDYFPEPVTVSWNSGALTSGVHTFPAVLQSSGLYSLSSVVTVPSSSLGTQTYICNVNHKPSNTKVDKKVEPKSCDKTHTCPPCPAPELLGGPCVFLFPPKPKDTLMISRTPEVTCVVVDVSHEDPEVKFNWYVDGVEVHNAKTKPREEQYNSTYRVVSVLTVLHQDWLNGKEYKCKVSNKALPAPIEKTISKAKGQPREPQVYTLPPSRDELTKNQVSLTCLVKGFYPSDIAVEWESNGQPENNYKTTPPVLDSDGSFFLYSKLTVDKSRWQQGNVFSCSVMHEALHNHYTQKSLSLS
# light: B6 light
# B12: h1F6 IgG1 A327C-vcF2 (conjugate in Table 8) (antibody)
# heavy: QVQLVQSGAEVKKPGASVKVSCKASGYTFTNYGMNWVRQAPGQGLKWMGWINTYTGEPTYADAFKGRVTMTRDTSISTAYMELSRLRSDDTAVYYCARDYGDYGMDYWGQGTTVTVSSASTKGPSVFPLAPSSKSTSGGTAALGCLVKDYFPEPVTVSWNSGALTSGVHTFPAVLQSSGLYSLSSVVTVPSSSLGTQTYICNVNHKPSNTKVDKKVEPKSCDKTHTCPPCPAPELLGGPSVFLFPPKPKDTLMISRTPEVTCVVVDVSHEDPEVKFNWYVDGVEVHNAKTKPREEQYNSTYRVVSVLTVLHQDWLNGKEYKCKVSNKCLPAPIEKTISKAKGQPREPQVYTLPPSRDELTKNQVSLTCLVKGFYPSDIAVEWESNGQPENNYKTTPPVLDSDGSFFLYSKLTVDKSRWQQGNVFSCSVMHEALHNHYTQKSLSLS
# light: B6 light
# modifications: vcF2 as printed (taken as vcMMAF, 2 drugs/antibody); attachment residues not stated
# notes: Position 327 is Fc (EU) numbering; also called IgG1 A327C IgG-vcF2
# B13: h1F6 IgG1 E269C (antibody)
# heavy: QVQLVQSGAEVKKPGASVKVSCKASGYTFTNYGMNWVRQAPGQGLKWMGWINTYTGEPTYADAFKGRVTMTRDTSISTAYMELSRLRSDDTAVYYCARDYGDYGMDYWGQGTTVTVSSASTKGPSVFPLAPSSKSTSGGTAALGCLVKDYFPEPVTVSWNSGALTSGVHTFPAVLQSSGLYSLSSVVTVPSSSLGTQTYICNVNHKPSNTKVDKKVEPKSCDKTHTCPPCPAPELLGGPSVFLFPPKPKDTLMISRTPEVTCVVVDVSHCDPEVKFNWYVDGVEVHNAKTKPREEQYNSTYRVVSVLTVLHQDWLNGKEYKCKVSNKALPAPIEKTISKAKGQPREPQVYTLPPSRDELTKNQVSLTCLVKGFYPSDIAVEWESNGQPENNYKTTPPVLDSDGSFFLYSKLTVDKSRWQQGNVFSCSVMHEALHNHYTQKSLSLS
# light: B6 light
# B14: h1F6 IgG1 E269C-vcF2 (conjugate in Table 8) (antibody)
# heavy: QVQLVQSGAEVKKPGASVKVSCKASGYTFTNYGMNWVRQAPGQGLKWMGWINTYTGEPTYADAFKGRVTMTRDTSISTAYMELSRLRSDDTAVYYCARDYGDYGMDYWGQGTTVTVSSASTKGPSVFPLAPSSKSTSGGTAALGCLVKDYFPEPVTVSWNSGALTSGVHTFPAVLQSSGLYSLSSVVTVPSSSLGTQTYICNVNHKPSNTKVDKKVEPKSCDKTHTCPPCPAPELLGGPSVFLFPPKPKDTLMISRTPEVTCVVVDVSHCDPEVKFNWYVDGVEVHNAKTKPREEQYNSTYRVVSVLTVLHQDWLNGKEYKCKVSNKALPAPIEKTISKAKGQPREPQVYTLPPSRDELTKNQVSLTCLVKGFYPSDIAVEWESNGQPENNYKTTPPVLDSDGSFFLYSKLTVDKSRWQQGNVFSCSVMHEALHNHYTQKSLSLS
# light: B6 light
# modifications: vcF2 as printed (taken as vcMMAF, 2 drugs/antibody); attachment residues not stated
# notes: Position 269 is Fc (EU) numbering; also called IgG1 E269C IgG-vcF2
# B15: h1F6 IgG1 D265C-vcF2 (conjugate in Table 8) (antibody)
# heavy: not shown
# light: B6 light
# modifications: vcF2 as printed (taken as vcMMAF, 2 drugs/antibody); attachment residues not stated
# notes: Position 265 is Fc (EU) numbering; also called IgG1 D265C IgG-vcF2
# B16: h1F6 IgG1 D265C (antibody)
# heavy: not shown
# light: B6 light
# B17: h1F6 IgG1 A327C (antibody)
# heavy: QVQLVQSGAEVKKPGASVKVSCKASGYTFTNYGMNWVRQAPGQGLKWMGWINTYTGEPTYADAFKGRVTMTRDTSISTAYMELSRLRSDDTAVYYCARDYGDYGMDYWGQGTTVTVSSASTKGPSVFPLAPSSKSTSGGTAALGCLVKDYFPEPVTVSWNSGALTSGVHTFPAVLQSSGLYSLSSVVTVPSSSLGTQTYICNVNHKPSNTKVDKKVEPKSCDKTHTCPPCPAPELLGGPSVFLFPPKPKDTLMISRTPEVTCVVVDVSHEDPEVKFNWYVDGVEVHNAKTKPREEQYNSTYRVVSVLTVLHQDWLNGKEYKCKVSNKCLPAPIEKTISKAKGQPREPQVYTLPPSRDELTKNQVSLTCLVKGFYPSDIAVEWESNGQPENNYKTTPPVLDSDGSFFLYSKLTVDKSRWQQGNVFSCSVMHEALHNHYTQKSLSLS
# light: B6 light
# B18: c1F6(293)-F8 (c1F6 conjugated to vcMMAF, eight drug units per antibody) (antibody, V domains shown)
# VH: QIQLVQSGPEVKKPGETVKISCKASGYTFTNYGMNWVKQAPGKGLKWMGWINTYTGEPTYADAFKGRFAFSLETSASTAYLQINNLKNEDTATYFCARDYGDYGMDYWGQGTSVTVSS
# VL: DIVLTQSPASLAVSLGQRATISCRASKSVSTSGYSFMHWYQQKPGQPPKLLIYLASNLESGVPARFSGSGSGTDFTLNIHPVEEEDAATYYCQHSREVPWTFGGGTKLEIKR
# modifications: vcMMAF conjugated, loading level of eight drug units per antibody; attachment residues not stated
# B19: c1F6 (chimeric derivative of the anti-CD70 murine monoclonal antibody 1F6) (antibody, V domains shown)
# VH: B18 VH
# VL: B18 VL
# notes: also called chimeric 1F6
# Assays:
# [1] = biological target: T1, human CD70 on CD70 positive cell lines (human, UniProt P32970 1-193); test: cell-based or functional assay
# T1 sequence (looked up): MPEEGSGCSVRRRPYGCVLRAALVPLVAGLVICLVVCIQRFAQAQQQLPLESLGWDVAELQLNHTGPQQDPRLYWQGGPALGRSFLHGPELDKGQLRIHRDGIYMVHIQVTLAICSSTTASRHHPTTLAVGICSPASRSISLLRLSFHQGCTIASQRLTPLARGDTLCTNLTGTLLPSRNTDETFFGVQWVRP
# [2] = biological target: T1, human CD70 on CD70 positive cell lines; test: saturation binding of europium-labelled antibody to CD70+ ACHN cells (apparent KD)
# Description: (§1) Humanized 1F6 antibody derivatives HDLA (hVHD and hVLA), HHLA (hVHH and hVLA), and HJLA (hVHJ and hVLA), and c1F6 were transiently expressed in 293 cells, labeled with europium using the Eu-N1 iodoacetamido chelate (Perkin Elmer), and analyzed for saturation binding to a panel of CD70 positive cell lines as described in detail in U.S. Patent Application No. 60/673,070, filed Apr. 19, 2005; and PCT International Publication No. WO 2006/113909.
# [3] = biological target: T1, human CD70 on CD70 positive cell lines; test: saturation binding of europium-labelled antibody to CD70+ 786-O cells (apparent KD)
# Description: as §1
# [4] = biological target: T1, human CD70 on CD70 positive cell lines; test: saturation binding of europium-labelled antibody to CD70+ Caki-1 cells (apparent KD)
# Description: as §1
# [5] = biological target: T1, human CD70 on CD70 positive cell lines; test: saturation binding of europium-labelled antibody to CD70+ Caki-2 cells (apparent KD)
# Description: as §1
# [6] = biological target: T2, human FcγRI, full length on stably transfected CHO cells (human, UniProt P12314 16-374); test: cell-based competition binding, flow cytometry (LSRII): serial dilutions of unlabelled competitor against 50 nM Alexa Fluor 488-labelled h1F6 IgG1 on CHO cells expressing human FcγRI
# T2 construct: whole, on cells; also called CD64; Fcγ receptor I
# T2 sequence (P12314 16-374): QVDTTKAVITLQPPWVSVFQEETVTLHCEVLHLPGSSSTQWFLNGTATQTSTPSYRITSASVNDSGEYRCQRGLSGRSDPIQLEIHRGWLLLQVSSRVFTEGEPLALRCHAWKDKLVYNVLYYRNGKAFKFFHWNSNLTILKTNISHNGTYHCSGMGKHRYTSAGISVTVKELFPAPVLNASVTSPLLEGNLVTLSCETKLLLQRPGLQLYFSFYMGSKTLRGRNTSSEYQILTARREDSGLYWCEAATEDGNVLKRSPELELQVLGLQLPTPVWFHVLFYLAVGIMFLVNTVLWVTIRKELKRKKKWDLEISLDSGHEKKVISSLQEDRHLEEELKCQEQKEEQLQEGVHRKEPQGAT
# Experimental: Labeled cells were detected using an LSRII FACS analyzer.
# (§2) Binding of humanized anti-CD70 (h1F6) antibody to CHO cells expressing full-length FcγRI was determined by competition binding. […] Labeled cells were detected using an LSRII FACS analyzer.
# [7] = biological target: T1, human CD70 on CD70 positive cell lines; test: 786-O cell binding; IC50 of the vcF2 conjugate over IC50 of the unconjugated IgG
# [8] = biological target: T2, human FcγRI, full length on stably …; test: cell-based competition binding on CHO cells expressing full-length FcγRI, 'performed as described previously' (50 nM Alexa Fluor 488-labelled h1F6 IgG1)
# Experimental: as §2
# (§3) Binding of one of the variants, IgG1 S239C, to CHO cells expressing full-length FcγRIIIa and FcγRI was determined as described above. […] The control, parent antibody h1F6, binds to FcγRIIIa-expressing cells and FcγRI-expressing cells.
# [9] = biological target: T3, human FcγRIIIa, 158V (high affinity), full length on stably transfected CHO cells (human, UniProt P08637 17-254); test: cell-based competition binding on CHO cells expressing full-length FcγRIIIa, 'performed as described previously' (158V line, 100 nM Alexa Fluor 488-labelled h1F6 IgG1); the sheet says only FcγRIIIA
# T3 construct: whole, on cells; CHO DG44 line '158V'; also called CD16
# T3 sequence (P08637 17-254 F176V): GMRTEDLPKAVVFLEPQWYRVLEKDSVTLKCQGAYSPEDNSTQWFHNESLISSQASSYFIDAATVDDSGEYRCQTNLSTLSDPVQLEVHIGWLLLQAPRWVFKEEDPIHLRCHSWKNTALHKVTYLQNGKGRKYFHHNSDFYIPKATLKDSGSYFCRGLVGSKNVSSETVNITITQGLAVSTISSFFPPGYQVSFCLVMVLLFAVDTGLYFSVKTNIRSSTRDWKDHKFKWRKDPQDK
# Experimental: Binding of variant humanized anti-CD70 (h1F6) antibodies to CHO cells expressing full-length FcγRIIIa was also determined by competition binding. […] Labeled cells were detected using an LSRII FACS analyzer.
# as §3
# [10] = biological target: T1, human CD70 on CD70 positive cell lines; test: 786-O cell binding, apparent KD of the IgG
binder,measurement,setting,value
B1,"cytotoxicity IC50 (mean, n = 3), 786-O cells",[1],2.03 ng/mL
same,"cytotoxicity IC50 (mean, n = 3), Caki-1 cells",[1],2.07 ng/mL
same,"cytotoxicity IC50, 786-O cells",[1],2.8 ng/mL
same,"cytotoxicity IC50, Caki-1 cells",[1],1.8 ng/mL
B2,"cytotoxicity IC50 (mean, n = 3), 786-O cells",[1],3.9 ng/mL
same,"cytotoxicity IC50 (mean, n = 3), Caki-1 cells",[1],2.87 ng/mL
same,"cytotoxicity IC50, 786-O cells",[1],5.2 ng/mL
same,"cytotoxicity IC50, Caki-1 cells",[1],3.4 ng/mL
B3,"cytotoxicity IC50 (mean, n = 3), 786-O cells",[1],1.93 ng/mL
same,"cytotoxicity IC50 (mean, n = 3), Caki-1 cells",[1],1.87 ng/mL
same,"cytotoxicity IC50, 786-O cells",[1],2.3 ng/mL
same,"cytotoxicity IC50, Caki-1 cells",[1],1.4 ng/mL
B4,Kd,[2],1.44 nM
same,Kd,[3],0.55 nM
same,Kd,[4],1.29 nM
same,Kd,[5],0.86 nM
B5,Kd,[2],0.29 nM
same,Kd,[3],0.28 nM
same,Kd,[4],1.22 nM
same,Kd,[5],0.15 nM
B6,"cytotoxicity IC50 (mean, n = 3), 786-O cells",[1],3.03 ng/mL
same,"cytotoxicity IC50 (mean, n = 3), Caki-1 cells",[1],2.3 ng/mL
same,"cytotoxicity IC50, 786-O cells",[1],3.4 ng/mL
same,"cytotoxicity IC50, Caki-1 cells",[1],2.2 ng/mL
B7,IC50 (read off the curve),[6],~30 nM
B8,IC50 IgG-vcF2 / IC50 IgG,[7],1.3 ratio
B9,IC50 (read off the curve),[6],~10 nM
B10,IC50 IgG-vcF2 / IC50 IgG,[7],1.1 ratio
same,IC50 (read off the curve),[8],~8 nM
same,binding result,[9],binds
B11,Kd,[10],1 nM
same,IC50 (read off the curve),[8],~10 nM
same,binding result,[9],binds
B12,IC50 IgG-vcF2 / IC50 IgG,[7],1.1 ratio
B13,Kd,[10],0.8 nM
B14,IC50 IgG-vcF2 / IC50 IgG,[7],0.9 ratio
B15,IC50 IgG-vcF2 / IC50 IgG,[7],0.9 ratio
B16,Kd,[10],1.1 nM
B17,Kd,[10],0.5 nM
B18,"cytotoxicity IC50 (mean, n = 3), 786-O cells",[1],1.45 ng/mL
same,"cytotoxicity IC50 (mean, n = 3), Caki-1 cells",[1],2.17 ng/mL
same,"cytotoxicity IC50, 786-O cells",[1],2.4 ng/mL
same,"cytotoxicity IC50, Caki-1 cells",[1],1.8 ng/mL
B19,Kd,[2],0.3 nM
same,Kd,[3],0.56 nM
same,Kd,[4],1.28 nM
same,Kd,[5],0.26 nM
